In the RNAGym collection of RNA variant scans (doi:10.7554/elife.90254):

B1: OR4K15 (parent)
chain: GUUAACGGUCAUAGGCCAUGGAAACUAGGAGCACCAUUUCGCUGCCAGUGAAGAAAUGAACAAAGAAAAUCUGGGCCAGGCAGGCAUCAAAAGAAAUAGUCUUGCGCUCAACCAGAAAGUCUGUAAUCAUUUUAAGGGUA

Variants of: B1
Experiment: self-cleavage, relative activity (ratio to wild type); higher = more cleavage; in vitro, sequencing; the parent is a self-cleaving ribozyme

| Variant | self-cleavage |
| --- | --- |
| U3C A22G | 1.33 |
| C34U A126G | 1.12 |
| A47G G75U | 0.16 |
| U37C A68G | 1.25 |
| C6A C61U | 0.76 |
| A78C U127C | 0.18 |
| U133C A134G | 0.26 |
| A129G U130A | 1.41 |
| U87G A91G | 0.11 |
| A89G A90U | 1.39 |
| C6G A126G | 1.2 |
| U43C A59G | 0.68 |
| U39G C105A | 0.16 |
| A66G A129G | 0.85 |
| A27G A95C | 0.48 |
| U38C G83A | 2.15 |
| A69C G84U | 0.82 |
| A47C U72A | 0.37 |
| A63G A110C | 0.38 |
| A60G U127C | 0.93 |
| U2G | 0.92 |
| A47U A118C | 0.48 |
| A94U A116G | 0.48 |
| A94G A126C | 0.82 |

| Variant | self-cleavage |
| --- | --- |
| C42A C45A | 1.75 |
| U108A U127A | 0.03 |
| A126G U130C | 0.61 |
| U39C U100A | 0.56 |
| A68U U127A | 2.58 |
| U57C A82C | 0.23 |
| U9A U102C | 1.97 |
| A82U A126G | 0.1 |
| U72A C101U | 0.04 |
| A13G A118C | 0.41 |
| U108C A118C | 0 |
| A56C A117G | 1.17 |
| U43A U72C | 0.27 |
| A13U A82U | 0.24 |
| A78C A110G | 0.13 |
| U39C U87A | 1.92 |
| A62G U72G | 0.22 |
| A36G U133A | 2.28 |
| A55G A92G | 0.67 |
| A52G A110U | 1.17 |
| U19C U100A | 0.71 |
| A11U U131C | 1.15 |
| A59G A86C | 0.64 |
| A91G U139C | 1.71 |

| Variant | self-cleavage |
| --- | --- |
| U19G A111G | 0.04 |
| C109A U122C | 0.28 |
| C113U U130C | 0.04 |
| A78G A89C | 0.43 |
| A13U G80C | 0.26 |
| A22G G48U | 0.9 |
| U3C G48A | 0.97 |
| U43A A55G | 0.35 |
| G79A C112G | 0.12 |
| U9A U127A | 0.66 |
| A66G U130C | 1.68 |
| G29A A66G | 1.59 |
| A78U A95G | 0.84 |
| A64G A116G | 0.61 |
| A126G U139C | 1.19 |
| G99A C113U | 0.05 |
| U37C U122C | 1.25 |
| A110U U127C | 0.44 |
| U72A A110G | 0.06 |
| A92G U120C | 0.64 |
| U43C A78C | 0.29 |
| A91U U122C | 1.4 |
| U39C C45U | 1.46 |
| A63G A90G | 1.6 |

| Variant | self-cleavage |
| --- | --- |
| C6G U130C | 0.63 |
| A13C U139C | 1.48 |
| A78G C88A | 0.17 |
| A51U A82C | 0.24 |
| A18C A52G | 1.51 |
| A86U A95G | 2.02 |
| G53U U70C | 1.29 |
| U38C A125G | 0.54 |
| A86U A96G | 1.68 |
| U49A A126G | 0.99 |
| A47U G84U | 0.25 |
| U9C G123A | 2.14 |
| U72C C76U | 0.22 |
| A110C U122A | 0.24 |
| G115C | 0.14 |
| U9C G106U | 0 |
| A33U U130C | 2 |
| A56U U132C | 1.11 |
| A11U A90U | 1.19 |
| G41C A52G | 1.59 |
| A13U U132A | 0.96 |
| A114U U133C | 0.14 |
| U43C A52G | 1.49 |
| U103C U120G | 0.4 |

| Variant | self-cleavage |
| --- | --- |
| U103C U120C | 0.4 |
| U49A U72A | 0.36 |
| A67G U87A | 1.28 |
| U2C C61U | 1.77 |
| U19A A59U | 1.72 |
| A69U U130C | 0.9 |
| U9A A66G | 1 |
| C6U A68G | 0.79 |
| A60G C112U | 0.02 |
| A62C A140U | 1.7 |
| A110G A125G | 0.07 |
| U70C G119A | 1.49 |
| U12A C77U | 1.45 |
| A63G U102C | 1.43 |
| U87C A134G | 1.63 |
| A69G C121A | 2.02 |
| U38A A94G | 1.85 |
| A60G A96G | 1.47 |
| U57A A110C | 0.17 |
| A56G C76U | 0.14 |
| U12A A52U | 1.23 |
| A67U U87C | 1.29 |
| A51G U103A | 0.32 |
| A59G U122A | 1.38 |

| Variant | self-cleavage |
| --- | --- |
| A47U G115A | 0.15 |
| A4C U43A | 0.94 |
| A18G U19C | 1.06 |
| G53U U87C | 0.98 |
| U49C A86C | 0.78 |
| G15A U108A | 0.01 |
| U3A A22G | 1.2 |
| U37C U127A | 2.07 |
| A62C A135G | 1.24 |
| A51G A90G | 1.29 |
| A22U U26C | 0.97 |
| A54U A82G | 0.64 |
| A59U G137A | 2.05 |
| A60G A98U | 2.21 |
| U131C U139C | 0.46 |
| A18G U72C | 0.38 |
| A18U A63G | 0.84 |
| G84C U127C | 0.22 |
| U100C G123A | 2.36 |
| A68G G137A | 1.06 |
| A23G A86C | 1.06 |
| C46A A60G | 0.67 |
| U72G A114U | 0.6 |
| A66U G106A | 0.02 |

| Variant | self-cleavage |
| --- | --- |
| G73U A86C | 0.19 |
| G48A A69G | 1.49 |
| A5U A82G | 0.6 |
| G41A A63G | 1.4 |
| U12C C85A | 0.75 |
| A64G A129C | 1.8 |
| A114C A129G | 0.01 |
| A95G A125G | 1.02 |
| A54U U130C | 1.62 |
| A11C U43C | 2.23 |
| U57C A69U | 1.63 |
| A33C U108C | 0.01 |
| C46U A52G | 1.09 |
| U132A U139C | 1.56 |
| G74A U108A | 0.03 |
| U108A G123A | 0.01 |
| A27G A110C | 0.43 |
| G137U | 2.05 |
| G137C | 1.82 |
| U38A A135G | 2.17 |
| A78G A117U | 0.1 |
| C101U G106A | 0 |
| A64G A89U | 2.18 |
